Experimental data from publication PMC6124691 (Cell, 2018).

Key:
[1] = biological target: T1, Human MTR4 (SKIV2L2, DOB1) (human, UniProt P42285 1-1042); test: cryo-EM structure
T1 sequence: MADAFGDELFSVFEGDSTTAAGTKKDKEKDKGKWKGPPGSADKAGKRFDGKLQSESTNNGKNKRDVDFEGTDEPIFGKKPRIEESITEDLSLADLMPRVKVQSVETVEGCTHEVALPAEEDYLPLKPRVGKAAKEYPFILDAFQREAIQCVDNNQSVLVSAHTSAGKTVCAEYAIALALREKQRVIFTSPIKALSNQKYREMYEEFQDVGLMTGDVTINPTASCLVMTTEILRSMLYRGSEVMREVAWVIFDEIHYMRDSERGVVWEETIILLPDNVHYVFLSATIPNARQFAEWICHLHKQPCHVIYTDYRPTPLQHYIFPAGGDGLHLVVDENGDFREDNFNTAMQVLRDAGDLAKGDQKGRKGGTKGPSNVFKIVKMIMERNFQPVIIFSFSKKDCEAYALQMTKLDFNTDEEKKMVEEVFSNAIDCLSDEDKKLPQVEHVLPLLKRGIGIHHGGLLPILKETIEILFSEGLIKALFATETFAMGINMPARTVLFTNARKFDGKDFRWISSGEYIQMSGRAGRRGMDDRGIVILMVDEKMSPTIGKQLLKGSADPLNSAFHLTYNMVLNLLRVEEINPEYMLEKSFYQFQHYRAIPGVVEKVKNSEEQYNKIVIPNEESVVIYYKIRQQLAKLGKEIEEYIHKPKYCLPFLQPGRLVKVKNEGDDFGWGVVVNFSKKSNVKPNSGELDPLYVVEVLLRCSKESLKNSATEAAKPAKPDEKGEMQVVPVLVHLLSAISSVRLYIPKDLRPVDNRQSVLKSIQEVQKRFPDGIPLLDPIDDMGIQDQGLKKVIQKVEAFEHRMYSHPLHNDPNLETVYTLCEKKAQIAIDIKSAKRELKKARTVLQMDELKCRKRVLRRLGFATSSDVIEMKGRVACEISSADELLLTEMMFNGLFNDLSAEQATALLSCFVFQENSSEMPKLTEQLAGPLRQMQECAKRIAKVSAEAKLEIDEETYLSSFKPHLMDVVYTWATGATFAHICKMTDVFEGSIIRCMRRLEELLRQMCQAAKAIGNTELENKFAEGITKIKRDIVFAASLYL

EXOSC3 = EXOSC3 (human, UniProt Q9NQT5 1-275); test: cryo-EM structure
Chain of EXOSC3 (Q9NQT5 whole entry): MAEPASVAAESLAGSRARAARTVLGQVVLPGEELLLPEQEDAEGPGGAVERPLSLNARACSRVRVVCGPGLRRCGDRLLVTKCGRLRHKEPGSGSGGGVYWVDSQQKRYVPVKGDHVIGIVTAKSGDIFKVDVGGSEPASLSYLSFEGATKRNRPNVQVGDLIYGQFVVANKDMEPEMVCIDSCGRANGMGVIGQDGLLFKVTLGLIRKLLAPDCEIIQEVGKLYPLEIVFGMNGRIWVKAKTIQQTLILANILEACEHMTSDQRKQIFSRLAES

B1: Human M-Phase-Phosphoprotein 6 (MPP6) (natural protein)
chain: MAAERKTRLSKNLLRMKFMQRGLDSETKKQLEEEEKKIISEEHWYLDLPELKEKESFIIEEQSFLLCEDLLYGRMSFRGFNPEVEKLMLQMNAKHKAEEVEDETVELDVSDEEMARRYETLVGTIGKKFARKRDHANYEEDENGDITPIKAKKMFLKPQD
B1: binds [1]; binds (EXOSC3).
